A short description of data set [1]: pH, pKa and isoelectronic point of PuraMatrix. The conditions noted are these: aqueous 1% PuraMatrix solution, in this study. Type of data set: physicochemical. The source says:
Isoelectronic point (pI) is the pH at which a particular molecule carries no net electrical charge. PuraMarix® has four arginine and four aspartic acid. […] That means that there is no net electrical charge between around pH 3.9 and around pH 11.5, where the solubility of PuraMatrix® becomes low. Usually, aqueous PuraMatrix® solution has its pH level at 2.0-2.5. […] Although isotonic PuraMatrix® formulated in 10% sucrose solution has been used for cell culture experiments as shown in the current PuraMatrix® cell culture protocol, the pH of PuraMatrix® with 10% sucrose was also 2.2.

The conditions of data set [2]: cited from earlier work.

In the case of RADARADARADARADA [PuraMatrix®], the pH in data set [1] amounted to 2.2. Further, in data set [2] (aqueous PuraMatrix solution, usually), the pH level was 2.0-2.5. Also, the solubility result in data set [2] (between around pH 3.9 and around pH 11.5) is “low”. Further, the “pKa of aspartic acid in PuraMatrix” value in data set [2] was 3.9.
